Target: cynomolgus monkey GPRC5D (cynomolgus monkey)
Experiment: cell-based or functional assay

B1: talquetamab (bispecific antibody, human IgG4 S228P, lambda, F234A L235A)
heavy 1: not shown
light 1: DIQMTQSPSSLSASVGDRVTITCKASQNVATHVGWYQQKPGKAPKRLIYSASYRYSGVPSRFSGSGSGTEFTLTISNLQPEDFATYYCQQYNRYPYTFGQGTKLEIKKAAPSVTLFPPSSEELQANKATLVCLISDFYPGAVTVAWKGDSSPVKAGVETTTPSKQSNNKYAASSYLSLTPEQWKSHRSYSCQVTHEGSTVEKTVAPTECS
heavy 2: EVQLVESGGGLVQPGGSLRLSCAASGFTFNTYAMNWVRQAPGKGLEWVARIRSKYNNYATYYAASVKGRFTISRDDSKNSLYLQMNSLKTEDTAVYYCARHGNFGNSYVSWFAYWGQGTLVTVSSASTKGPSVFPLAPCSRSTSESTAALGCLVKDYFPEPVTVSWNSGALTSGVHTFPAVLQSSGLYSLSSVVTVPSSSLGTKTYTCNVDHKPSNTKVDKRVESKYGPPCPPCPAPEAAGGPSVFLFPPKPKDTLMISRTPEVTCVVVDVSQEDPEVQFNWYVDGVEVHNAKTKPREEQFNSTYRVVSVLTVLHQDWLNGKEYKCKVSNKGLPSSIEKTISKAKGQPREPQVYTLPPSQEEMTKNQVSLTCLVKGFYPSDIAVEWESNGQPENNYKTTPPVLDSDGSFLLYSKLTVDKSRWQEGNVFSCSVMHEALHNHYTQKSLSLSLGK
light 2: QTVVTQEPSLTVSPGGTVTLTCRSSTGAVTTSNYANWVQQKPGQAPRGLIGGTNKRAPGTPARFSGSLLGGKAALTLSGVQPEDEAEYYCALWYSNLWVFGGGTKLTVLGQPKAAPSVTLFPPSSEELQANKATLVCLISDFYPGAVTVAWKADSSPVKAGVETTTPSKQSNNKYAASSYLSLTPEQWKSHRSYSCQVTHEGSTVEKTVAPTECS
In the case of B1, the “in vivo pharmacological activity, cynomolgus monkey against human” value is reported as roughly 100 fold lower.

Source: US20220177584A1 (Janssen / Centocor, published 2022)
